Sequences and labels used below:
B1: Sumo–BRPF2 (1–205) (domain or fragment, human, UniProt O95696 1-205, looked up)
chain: MRRKGRCHRGSAARHPSSPCSVKHSPTRETLTYAQAQRMVEIEIEGRLHRISIFDPLEIILEDDLTAQEMSECNSNKENSERPPVCLRTKRHKNNRVKKKNEALPSAHGTPASASALPEPKVRIVEYSPPSAPRRPPVYYKFIEKSAEELDNEVEYDMDEEDYAWLEIVNEKRKGDCVPAVSQSMFEFLMDRFEKESHCENQKQG
B2: Sumo–BRPF2 (1–80) (domain or fragment, human, UniProt O95696 1-80, looked up)
chain: MRRKGRCHRGSAARHPSSPCSVKHSPTRETLTYAQAQRMVEIEIEGRLHRISIFDPLEIILEDDLTAQEMSECNSNKENS

The target in one test is HBO1 MYST domain (residues 336–611), without tag, co-expressed with BRPF2 (human, UniProt O95251 336-611). Nature of the test: crystal structure.
Sequence of HBO1 MYST domain (residues 336–611), without tag, co-expressed with BRPF2 (O95251 336-611): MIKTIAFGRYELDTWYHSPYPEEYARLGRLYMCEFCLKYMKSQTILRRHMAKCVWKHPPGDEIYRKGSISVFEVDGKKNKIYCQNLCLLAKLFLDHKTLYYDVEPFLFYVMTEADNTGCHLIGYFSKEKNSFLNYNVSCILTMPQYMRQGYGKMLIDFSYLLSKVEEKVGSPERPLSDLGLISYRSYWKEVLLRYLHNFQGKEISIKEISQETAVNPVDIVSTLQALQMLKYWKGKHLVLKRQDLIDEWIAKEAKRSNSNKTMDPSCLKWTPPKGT
For LTYAQAQRMVEIEIEGRLHRISIFDPLEIILEDDLTAQEMSECNSNKENS (domain or fragment, human, UniProt O95696 31-80, looked up) [BRPF2 (31–80), His6 tag removed, co-expressed with the HBO1 MYST domain], the “stoichiometry N” value is 1.

The target of another test is GST-fused HBO1 MYST domain (residues 336–611) (human, UniProt O95251 336-611). The test is described as follows: pull-down.
Sequence of GST-fused HBO1 MYST domain (residues 336–611) (O95251 336-611): as the sequence (O95251 336-611) above
On to LTYAQAQRMVAIAIAGRLHRISIFDPLEIILEDDLTAQEMSECNSNKENS (domain or fragment, human, UniProt O95696 31-80, looked up) [Sumo–BRPF2 (31–80) E41A/E43A/E45A], for which the binding result is “binds”. On to LTYAQAQRMVKIKIKGRLHRISIFDPLEIILEDDLTAQEMSECNSNKENS (domain or fragment, human, UniProt O95696 31-80, looked up) [Sumo–BRPF2 (31–80) E41K/E43K/E45K], for which the binding result was “binds”.

Turning to LTYAQAQRMVEIEIEGRLHRISIFDPLEIILKKKLTAQEMSECNSNKENS (domain or fragment, human, UniProt O95696 31-80, looked up) [Sumo–BRPF2 (31–80) E62K/D63K/D64K], the binding result is recorded as “binds”. Take LTYAQAQRMVEIEIEGRLHRISIFDPLEIILAAALTAQEMSECNSNKENS (domain or fragment, human, UniProt O95696 31-80, looked up) [Sumo–BRPF2 (31–80) E62A/D63A/D64A]: the binding result is on record as “binds”. Take B1: the binding result was “binds”. Still for that read-out and setting: as for MVEIEIEGRLHRISIFDPLEIILE (domain or fragment, human, UniProt O95696 39-62, looked up) [Sumo–BRPF2 (39–62)], the entry is “binds”. Same read-out and setting: as for MVEIEIEGRLHRISIFDPLEIILEDDLT (domain or fragment, human, UniProt O95696 39-66, looked up) [Sumo–BRPF2 (39–66)], the entry is “binds”; as for B2, “binds”. With LTYAQAQRMVEIEIEGRLHRISIFDPLEIILE (domain or fragment, human, UniProt O95696 31-62, looked up) [Sumo–BRPF2 (31–62)], the binding result is recorded as “binds”.

As a reminder, the stoichiometry N is the number of molecules, sites or subunits per partner or assembly.

Source of the values: PMC5449618 (Nucleic Acids Research, 2017).
